Data as given in the supplement of paper PMC10266784.

B1: library; numbered along this chain (parent)
chain: MAAAAAAAAEQQSSNGPVKKSMREKAVERRSVNKEHNSNFKAGYIPIDEDRLHKTGLRGRKGNLAICVIILLFILAVINLIITLVIWAVIRIGPNGCDSMEFHESGLLRFKQVSDMGVIHPLYKSTVGGRRNENLVITGNNQPIVFQQGTTKLSVENNKTSITSDIGMQFFDPRTQNILFSTDYETHEFHLPSGVKSLNVQKASTERITSNATSDLNIKVDGRAIVRGNEGVFIMGKTIEFHMGGNMELKAENSIILNGSVMVSTTRLPSSSSGDQLGSGDWVRYKLCMCADGTLFKVQVTSQNMGCQISDNPCGNTH

Variants of: B1
Test: SGCB cell-surface expression functional score (HA stain, bin4 vs bin1, normalised to synonymous) (log10 ratio); higher = more cell-surface SGCB (functional)
In short: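 HEK293 cells stably expressing alpha-, gamma- and delta-sarcoglycan received codon-saturation libraries of HA-tagged, YFP-fused human beta-sarcoglycan by lentiviral transduction at MOI <0.1, performed in duplicate. Cells positive for YFP were sorted after 72 hours and cultured for 5–7 days, then stained on ice with Alexa Fluor 647 anti-HA and fixed. Fixed cells were sorted into four 5% intensity bins and amplicon-sequenced, and the log ratio of highest-bin to lowest-bin variant frequency, as a median over codons and transductions, gives the functional score. Per section, synonymous variants were scaled to mean 0, SD 0.5.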

SGCB cell-surface expression functional score (log10) of substitutions, site by site:
T138: N 0.54 | P -1 | M 0.02 | F 0.14 | D -0.39 | I 0.11 | R -0.08 | C -0.1 | L 0.16 | A -0.51 | W 0.68 | G -0.34 | E -0.61 | V 0.19 | S 0.4 | Y -0.33 | Q -0.47 | H 0.22 | K -0.25
N141: R 0.07 | Q -0.08 | Y -0.56 | M 0.71 | L -0.45 | A -0.39 | T -0.25 | F -0.33 | I -0.7 | W -0.63 | S 0.17 | E -0.4 | H -0.24 | K -0.5 | D -0.21 | V -0.25 | G -0.3 | P -0.87 | C 0.03
V136: L 0.17 | F 0.49 | P -1.03 | A 0.05 | G -0.58 | Q 0.22 | R -0.57 | I 0.32 | Y 0.15 | M -0.57 | E 0.05 | K 0.36 | W 0.57 | S -0.3 | C -0.25 | D -0.33 | H -0.22 | N -0.01 | T -0.51
P143: G -0.72 | A -0.21 | R -0.34 | H -0.41 | E -0.73 | Y -0.63 | L -0.54 | V 0.07 | C 0.07 | Q -0.7 | M 0.69 | I -0.11 | N -0.09 | T -0.41 | F -0.1 | D -0.9 | K -0.28 | S -0.44
R131: P -0.13 | W 0.6 | F -0.03 | T -0.17 | D 0.14 | Q -0.6 | V 0.31 | H -0.12 | Y 0.31 | I 0.65 | E 0.66 | A 0.14 | N 0.24 | K 0.23 | S -0.09 | C 0.15 | L 0.13 | G 0.16 | M 0.59
Q142: L -0.54 | K -0.31 | P -1.08 | R -0.5 | W 0.21 | E -0.04 | A -0.06 | N -0.43 | M 0.97 | V -0.05 | G -0.22 | C -0.01 | S 0.05 | Y -0.3 | F 0.14 | I -0.41 | D -0.54 | T -0.17 | H -0.52
I144: N -0.97 | V 0.47 | C -0.33 | E -1.11 | L -0.46 | D -0.57 | W -1.4 | Y -1.1 | A -0.98 | Q -0.96 | K -1.07 | T -0.64 | H -0.73 | G -0.85 | P -1.22 | M -0.89 | F -0.77 | S -0.8 | R -1.06
V145: N -0.26 | F -0.11 | K -0.12 | L -0.09 | C -0.73 | E -0.03 | A -0.01 | G -0.81 | I 0.52 | D -0.79 | H -0.24 | M -0.9
G139: M -1.05 | I -0.91 | F -1.58 | W -0.74 | L -1.18 | Q -1.77 | D -0.84 | P -1.13 | C -0.65 | S 0.06 | A -0.13 | E -0.91 | R -0.98 | Y -1.89 | V -1.28 | T -0.23 | N 0.52 | K -1.52 | H -1.79
R130: W -0.57 | K -0.01 | E 0.14 | G -0.2 | I 0.29 | M 0.56 | D -1.07 | V -0.41 | H 0.08 | L 0.65 | Q 0.47 | Y 0.43 | P 0.33 | F 0.13 | A 0.27 | S -0.4 | C -0.28 | N -0.47 | T -0.51
G129: W -1.42 | I -0.84 | D -0.94 | M -0.82 | S 0.47 | H -0.43 | N -0.81 | R -1.04 | L -1.15 | T -0.06 | F -0.78 | Y -0.91 | E -0.9 | P 0.12 | Q -1.09 | C -1.01 | K -1.37 | V -0.74 | A -0.41
N140: G 0.06 | D -0.24 | M -0.05 | R 0.05 | P -0.49 | Q -0.33 | L -0.39 | C -0.04 | V 0.16 | W -0.93 | Y -0.05 | E 0.35 | K -0.48 | I -0.12 | F -0.56 | S -0.38 | A -0.08 | T -0.19 | H -0.65
G128: Y 0.6 | R -0.6 | W 0.3 | F 0.6 | N 0.37 | E 0.08 | D -0.05 | A 0.14 | S 0.07 | C -0.21 | I 0.01 | K -1.35 | L 0.03 | T -0.56 | M 0.04 | V -0.76 | P -1.25 | H -0.22 | Q -0.11
N132: R -0.38 | C 0.33 | A 0.15 | I -0.22 | K -0.36 | F -0.11 | D -0.52 | W -0.63 | Y 0.44 | S -0.31 | T -0.61 | V -0.38 | E 0.11 | Q -0.01 | L -0.16 | G 0.13 | H 0.63 | P -1.06 | M -0.85
N134: I -0.65 | Q -0.54 | T -0.26 | G -0.09 | E -0.18 | R -0.6 | V -0.29 | P -0.03 | L -0.84 | W -0.71 | H 0.34 | C -0.25 | A 0.39 | K 0.09 | D 0.11 | S 0.08 | M -0.26 | Y -0.82 | F -0.37
I137: M 0.54 | D -1.25 | R -1.41 | S -1.35 | W -0.8 | G -1.08 | A -1.07 | K -1.21 | N -1.72 | Y -1.36 | C -1.42 | L -0.12 | P -1.44 | F -0.01 | H -1.24 | T -0.7 | Q -1.71 | V -0.52 | E -0.97
L135: T -1.04 | W -0.88 | D -1.2 | M -0.06 | N -1.44 | H -1.28 | E -1.07 | V -0.35 | C -0.83 | P -1 | Y -0.88 | A -1.13 | I -0.47 | F -0.08 | S -1.11 | K -1.3 | G -1.2 | Q -1.5 | R -0.77
E133: F -0.38 | K -0.35 | T 0.08 | C 0.05 | M -0.21 | D 0.54 | I -0.47 | Q -0.09 | H 0.17 | G -0.14 | P -1 | N 0.04 | Y -0.25 | A -0.35 | V -0.31 | W 0.5 | R -0.14 | S 0.19 | L -0.3
